Paper PMC5039030, “DPP9 is a novel component of the N-end rule pathway targeting the tyrosine kinase Syk” (eLife, 2016)

Legend:
[1] = target: T1, DPP9 S730G (inactive DPP9 variant) (UniProt Q86TI2 1-863, S730G); test: SPR; His-tagged DPP9 captured on a Ni2+ chelator chip (2500 to 3500 µRIU); peptide injected at 16 µM to 0.125 µM (Syk 1–31) or 32 µM to 1 µM (Syk 3–31); 20 mM Hepes, 150 mM NaCl, 0.005% Tween 20, 50 µM EDTA, pH 7.4; 40 µl/min; equilibrium binding analysis; conditions: both partners purified
T1 construct: DPP9 with the active-site serine mutated to glycine; Parent construct is surmised to be DPP9-short as in m1; source: recombinant

[2] = target: T2, recombinant DPP9-short (His-tagged DPP9 wild type) (UniProt Q86TI2 1-863); test: as above; conditions: both partners purified
T2 construct: DPP9, short isoform (DPP9-short); The His tag is named only for the SPR experiment; also called DPP9 wt; dipeptidylpeptidase 9
T2 sequence (Q86TI2 whole entry, canonical isoform): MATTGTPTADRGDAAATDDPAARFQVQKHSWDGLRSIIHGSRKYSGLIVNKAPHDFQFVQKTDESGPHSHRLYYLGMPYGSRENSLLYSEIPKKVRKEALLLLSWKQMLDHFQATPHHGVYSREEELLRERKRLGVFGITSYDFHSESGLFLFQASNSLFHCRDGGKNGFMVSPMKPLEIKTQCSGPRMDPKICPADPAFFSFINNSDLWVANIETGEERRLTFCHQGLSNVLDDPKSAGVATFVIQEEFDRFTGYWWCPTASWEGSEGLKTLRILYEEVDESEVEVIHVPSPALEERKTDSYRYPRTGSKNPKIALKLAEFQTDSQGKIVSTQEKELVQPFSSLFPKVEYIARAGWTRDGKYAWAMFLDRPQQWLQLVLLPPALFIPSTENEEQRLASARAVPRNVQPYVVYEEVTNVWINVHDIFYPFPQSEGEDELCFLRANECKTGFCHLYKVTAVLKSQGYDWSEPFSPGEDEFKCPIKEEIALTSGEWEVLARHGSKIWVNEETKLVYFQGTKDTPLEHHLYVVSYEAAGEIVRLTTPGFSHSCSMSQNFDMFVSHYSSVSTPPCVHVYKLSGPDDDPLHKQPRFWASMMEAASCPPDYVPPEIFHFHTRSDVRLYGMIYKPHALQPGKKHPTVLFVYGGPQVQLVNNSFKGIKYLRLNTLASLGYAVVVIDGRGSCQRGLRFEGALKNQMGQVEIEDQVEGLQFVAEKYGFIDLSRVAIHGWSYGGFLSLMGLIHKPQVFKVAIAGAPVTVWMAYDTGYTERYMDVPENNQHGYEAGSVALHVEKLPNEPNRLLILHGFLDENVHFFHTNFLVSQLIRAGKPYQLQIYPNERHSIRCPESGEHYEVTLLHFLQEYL

T1 sequence (Q86TI2 whole entry S730G): as the sequence (Q86TI2 whole entry, canonical isoform) above, with S730G counted along it

Kd [1] [µM] | Kd [2] [µM] | Binder
284 | 52 | synthetic Syk (1–31) peptide covering the first 31 amino acids of full-length Syk (tyrosine kinase Syk, residues 1–31; also called Syk N-terminus peptide (1–31); Syk amino terminus peptide 1–31; source: synthetic peptide (custom-made by GenScript, >80% purity)) peptide: not shown
– | 156 | Syk△MA (3–31) peptide (tyrosine kinase Syk, residues 3–31; also called Syk (3–31); source: synthetic peptide (custom-made by GenScript, >80% purity)) peptide: not shown
